Blank lines part the entries; values can stand above or below the binder they belong to.
Assays:
[1] = biological target: T1, Flag-Pyk2 (proline-rich tyrosine kinase 2 with N-terminal Flag tag, expressed from pFlag-Pyk2) (UniProt Q14289 1-1009); assay: anti-Flag immunoprecipitation from NK-92 lysate, Western blot with anti-GST
T1 construct: Overexpressed in cells; not shown: N-terminal Flag tag from the pBICEP-CMV-1 vector
Excerpt: (§1) From Example <12-4>, it was confirmed that phosphorylated Pyk2 and SOCS2 bind each other. To determine whether phosphorylation of Pyk2 is important in the binding with SOCS2 or not, the present inventors carried out the following experiment. First of all, HA-ubiquitin, pGST-SOCS2, and, pFlag-Pyk2 or pFlag-Pyk2-Y402F were cotransformed into NK-92 cells using Lipofectamin 2000. After 4 hr of transformation, the medium was replaced to a new culture medium, and 24 hr later, cells were lysed. The each cell lysate was allowed to react with anti-Flag antibody. The antigen-antibody complexes were precipitated by incubation at 4° C. for 1 day with G-protein-conjugated agarose. The immunoprecipitated complexes were washed with 1×PBS. Western blot analysis was performed by the same method in Example <2-1> using anti-p-Pyk2^Tyr402 antibody, anti-GST antibody, anti-Flag antibody or anti-HA antibody.

[2] = biological target: T2, Flag-Pyk2-Y402F (mutant Pyk2 in which tyrosine 402 had been mutated to phenylalanine, N-terminal Flag tag) (UniProt Q14289 1-1009); assay: as above
T2 construct: Made from pFlag-Pyk2 by site-directed mutagenesis; also called pFlag-Pyk2-Y402F; not shown: N-terminal Flag tag from the pBICEP-CMV-1 vector
T2 sequence (Q14289 whole entry Y402F): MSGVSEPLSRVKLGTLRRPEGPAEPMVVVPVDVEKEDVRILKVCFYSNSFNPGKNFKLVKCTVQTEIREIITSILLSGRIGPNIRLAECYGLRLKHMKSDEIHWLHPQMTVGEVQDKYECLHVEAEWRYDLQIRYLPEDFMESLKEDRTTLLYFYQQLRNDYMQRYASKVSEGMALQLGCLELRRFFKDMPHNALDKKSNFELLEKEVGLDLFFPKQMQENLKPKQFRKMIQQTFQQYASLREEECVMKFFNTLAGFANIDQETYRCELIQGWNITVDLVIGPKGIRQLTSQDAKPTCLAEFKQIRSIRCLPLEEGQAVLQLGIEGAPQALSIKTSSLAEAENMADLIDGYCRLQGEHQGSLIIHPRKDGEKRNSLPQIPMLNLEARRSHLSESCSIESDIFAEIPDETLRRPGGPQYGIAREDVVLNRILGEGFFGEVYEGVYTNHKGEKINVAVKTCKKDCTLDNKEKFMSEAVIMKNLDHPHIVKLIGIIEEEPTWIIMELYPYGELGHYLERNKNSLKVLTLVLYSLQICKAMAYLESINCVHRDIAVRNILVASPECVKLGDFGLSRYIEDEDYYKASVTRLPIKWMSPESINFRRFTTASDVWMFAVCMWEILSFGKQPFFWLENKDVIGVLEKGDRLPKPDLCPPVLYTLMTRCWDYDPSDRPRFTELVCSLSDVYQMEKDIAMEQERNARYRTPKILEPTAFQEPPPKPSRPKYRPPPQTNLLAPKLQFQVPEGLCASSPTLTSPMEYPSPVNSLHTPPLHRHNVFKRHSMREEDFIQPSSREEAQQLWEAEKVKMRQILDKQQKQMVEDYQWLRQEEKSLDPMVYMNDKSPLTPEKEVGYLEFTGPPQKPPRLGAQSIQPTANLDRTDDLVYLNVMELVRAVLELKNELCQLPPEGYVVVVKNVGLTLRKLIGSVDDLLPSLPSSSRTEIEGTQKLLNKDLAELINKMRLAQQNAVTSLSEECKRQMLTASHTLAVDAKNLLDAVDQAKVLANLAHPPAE
Excerpt: as §1

[3] = biological target: T1, Flag-Pyk2 (proline-rich tyrosine kinase …); assay: anti-Flag immunoprecipitation from 293T lysate, Western blot with anti-GST
Excerpt: To determine a SOCS2 domain which is important in the binding with Pyk2, the present inventors carried out the following experiment. HA-Ubiquitin, pFlag-Pyk2, and, GST expression vector, pGST-SOCS2, pGST-SOCS2-ΔSH2 or pGST-SOCS2-ΔSOCS were cotransformed into 293T cells using Lipofectamin 2000. After 4 hr of transformation, the medium was replaced to a new culture medium, and 24 hr later, cells were lysed. The each cell lysate was allowed to react with anti-Flag antibody. The antigen-antibody complexes were precipitated by incubation at 4° C. for 1 day with G-protein-conjugated agarose. The immunoprecipitated complexes were washed with 1×PBS. Western blot analysis was performed by the same method in Example <2-1> using anti-GST antibody, anti-Flag antibody, or anti-HA antibody (Santa Cruz, U.S.A.).

T1 sequence (Q14289 whole entry): as the sequence (Q14289 whole entry Y402F) above, with F402Y counted along it

binding result [1]: binds
binding result [2]: no binding
B1: GST-SOCS2 (SOCS2, suppressor of cytokine signaling 2, with N-terminal GST tag, expressed from pGST-SOCS2) (other, UniProt O14508 1-198, looked up)
chain: MTLRCLEPSGNGGEGTRSQWGTAGSAEEPSPQAARLAKALRELGQTGWYWGSMTVNEAKEKLKEAPEGTFLIRDSSHSDYLLTISVKTSAGPTNLRIEYQDGKFRLDSIICVKSKLKQFDSVVHLIDYYVQMCKDKRTGPEAPRNGTVHLYLTKPLYTSAPSLQHLCRLTINKCTGAIWGLPLPTRLKDYLEEYKFQV
notes: Overexpressed in 293T or NK-92 cells and tested in cell lysate; not shown: N-terminal GST tag from the pEBG vector

binding result [3]: no binding
B2: GST-SOCS2-ΔSH2 (mutant SOCS2 in which the SH2 domain was deleted, N-terminal GST tag) (other)
chain: MTLRCLEPSGNGGEGTRSQWGTAGSAEEPSPQAARLAKALRELGQ
notes: also called pGST-SOCS2-ΔSH2; not shown: N-terminal GST tag of the pEBG vector and the junction to it

From patent US20120282646A1 (KOREA RESEARCH INSTITUTE OF BIOSCIENCE AND BIOTECHNOLOGY, published 2012)
